Experimental data: PMC10636607
Read-outs that look alike come from different tables or passages of the source.

Assays:
Assay in all cases: BLI
[1] = molecular target: HC84.26.5D Fab VH G50R (human)
[2] = molecular target: HCV E2 envelope glycoprotein
[3] = molecular target: SARS-CoV-2 spike
[4] = molecular target: influenza HA
[5] = molecular target: biotinylated SARS-CoV-2 fusion peptide

Sequence of HC84.26.5D Fab VH G50R (human) (heavy, as listed by the source, chain 1 of 2): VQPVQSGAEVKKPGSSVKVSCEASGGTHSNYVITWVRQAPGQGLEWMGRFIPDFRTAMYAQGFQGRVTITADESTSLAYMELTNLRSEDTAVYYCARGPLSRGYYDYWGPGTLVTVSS
Sequence of HC84.26.5D Fab VH G50R (human) (light, as listed by the source, chain 2 of 2): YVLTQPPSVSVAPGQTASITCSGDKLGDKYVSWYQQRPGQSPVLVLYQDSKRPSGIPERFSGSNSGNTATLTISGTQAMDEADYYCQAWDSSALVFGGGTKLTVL

HCV (isolate H77) E2 domain protein (domain or fragment)
fold change in KD against the wild-type Fab [1]: 6 fold

HC33.8 (WT) H:S52Y
ratio to parent [2]: > 100

P008_60 (WT) H:S52R
ratio to parent [3]: > 100

8F8 (WT) H:S31R
ratio to parent [4]: > 100

Ab326 (WT) H:V50F
ratio to parent ([3]; read off a plot): 9.4

HCV1 (WT) H:W52S
ratio to parent [2]: > 100

COVOX-316 (WT) H:W50R
ratio to parent [3]: > 100

COV44-62 Fab (WT) H:R50W
ratio to parent [5]: > 100

H1244 (WT) H:S32Y
ratio to parent [4]: > 100
